Results from the RNAGym collection of RNA variant scans (doi:10.1073/pnas.2313332121).

B1: TPR t1 (parent)
chain: GACCAAUCUGCCCUCAGAGCUCGAGAACAUCUUCGGAUGCAGAGGAGGCAGGCUUCGGUGGCGCGAUAGCGCCAACGUCCUCAACCUCCAAUGCAUCCCACCACAUGAUGAUGCCUGAAGAGCCUUGGUUUUUUG

Variants of: B1
Assay: polymerase ribozyme fitness, log enrichment relative to wild type (log ratio); higher = more active; in vitro selection for triplet polymerase activity
Outline: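 A single round of triplicate in vitro selection, including frozen incubation at −7 °C, was applied to PCR-built, transcribed mutant libraries of each subunit of a heterodimeric triplet polymerase ribozyme. Illumina sequencing of input and output libraries retained genotypes with ≥10 input reads and ≥1 read per output. Fitness is the base-2 logarithm of genotype enrichment divided by wild-type enrichment, from inverse-variance-weighted replicate averages.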

| Variant | polymerase ribozyme fitness (log ratio) |
| --- | --- |
| U7A G45U C56G A66G | -3.29 |
| C34A C62A | -4.45 |
| A6U C40A G60U A105C | -4.4 |
| G47C G52C G120U C123A | -1.92 |
| U54A C89U U96C G127A | -1.97 |
| A46U C62G U112G | -2.14 |
| G44C C62G U132A | -2.39 |
| C31G C56G A68U U81A C99G G110C | -7.68 |
| G19C G36C G71U U112G U116C | -3.91 |
| A46C G58A C62U | -1.93 |
| C82A C89A | -2.78 |
| G10U C49U G57A U106C | -2.46 |
| C40G C53U G127C | -1.33 |
| U59G U92A | -3.4 |
| C28U G44U C49U G63C G110A | -2.74 |
| C49A G61U U81C G128U | -4.52 |
| C8G C12A G39A G61U A111U U130A | -2.24 |
| C64A U87A | -6.3 |
| U38C C40U A46U U55A C73U | -3.3 |
| C12U C49U G77A C97A C98A U109A A119U G127C | -6.68 |
| U14G C101G | -3.2 |
| G61A U112A C124U | 1.83 |
| A24G G63U | -3.19 |
| G60A G110C | -3.08 |

| Variant | polymerase ribozyme fitness (log ratio) |
| --- | --- |
| G69U C124A | 1.92 |
| A84U U112C | 1.2 |
| A43C U55C U130G | -2.82 |
| G60A C114U | -1.78 |
| A18G G19A U96C C115A | -4.42 |
| C49U A95G | -1.14 |
| G71U A83U | -0.358 |
| C86U C102A U112A C114A | -4.14 |
| A2U C13A C73U A74G | -3.05 |
| G42A U54A C72G C86U G110A C124G | -4.88 |
| C79G C94A | -2.62 |
| C8G C15U A18C C53A U55A C56G | -1.96 |
| A46U G128U | -3.23 |
| A37U A46U | -2.98 |
| C3U C40G G63C C115U | -2.66 |
| C49A C72A | 0.275 |
| C3U C56U C115U G127U | -3.57 |
| U9C A90G C115U U131C | 1.24 |
| A18U U87G G120A | -1.48 |
| A41C U81A U133G | -2.53 |
| G63C C85U A111C G122C | -3.75 |
| A16C C53U | -2.99 |
| G51A C53G G117C G127C | -7.73 |
| G48U C70U | -1.39 |

| Variant | polymerase ribozyme fitness (log ratio) |
| --- | --- |
| A24U G45A G60A C115U | -6.73 |
| A84U G93A C115G | -2.08 |
| U9G C40U G45U U129C G135A | -3.12 |
| C53U C98U | -1.46 |
| C70U U112A | 0.732 |
| A5U U54G | -0.237 |
| G42C U55C G60A C124G U132A | 0.349 |
| C53G | -0.355 |
| G52A | -0.286 |
| C12A C85G U116C | -3.68 |
| C11G G71A C89U G110U | -3.53 |
| A37U A90C U96A | -0.653 |
| A46C C76A | -0.908 |
| C56A G71U U81C A111U C115U | -6.9 |
| A6G C11G G57U | 0.178 |
| C8A C13G C80U | -0.499 |
| G63U C88A | -1.89 |
| G113C G128U | -4.01 |
| C94U C101A | -1.52 |
| A16U G52U G117A U130C U131G | -4.01 |
| A27C U78A | -3.62 |
| U9G A66U C80A C85U | -5.32 |
| G45C U109C | -4.66 |
| C28U C70A | -4.5 |

| Variant | polymerase ribozyme fitness (log ratio) |
| --- | --- |
| C72G U116A | -3.49 |
| C70G U106A | -2.52 |
| A2U G71U A74C | -4.54 |
| C8U A41C C73A G122A | 0.223 |
| C8U C53U | 0.0512 |
| C70A C79A | -3.11 |
| G60C C79A C88G | -2.51 |
| A66C G69A | -3.84 |
| C11G G44C A66G A83G C114A U133A | -5.39 |
| G61C G93U U130A | -3.65 |
| A50U C64U C70U | -5.2 |
| A29U C62G U81C A100U C124A | -3.66 |
| A46U A83G G110A | -3.02 |
| C72U C89A C104U U125G | -1.18 |
| A5U C12U A18G C80U C114U | -4.01 |
| C4U G61U | -0.685 |
| C114A G122A | -2.53 |
| C13U G71U A111G U126G | -0.972 |
| G60U G93C C104A G113C | -4.47 |
| C34U G47A | -4.25 |
| C49G G52A C82G A84G A121U | 0.784 |
| G47A G61A | -2.4 |
| C28U G110A | 0.874 |
| C13G G42U C49U G61U U130A | -4.93 |

| Variant | polymerase ribozyme fitness (log ratio) |
| --- | --- |
| C40A C82A U92A C102A C124U | -4.16 |
| C49G U55G U129A | -1.82 |
| C13U G17A A43C U59C U132C | -4.55 |
| A43U G48A G71U U112A | -1.51 |
| U81C G93A C123A | -0.322 |
| C22A A27G C85G A100C C101U G120C G127A | -6.82 |
| A29U C56U A74U A100C | -3.55 |
| C62A U87G U106G | -2.77 |
| C12U G45A G48A | -0.563 |
| G48A C56U C82U | -0.312 |
| G69C G122U U130C | -1.15 |
| G42A G47A | -2.34 |
| U54C G58A G69C A84U | -1.08 |
| G60U G117U | -1.65 |
| G77A C85A | -2.93 |
| A46U C56A C115U | -2.68 |
| G51U G60A C124U | -4.52 |
| U14C U67A G69A | -5.17 |
| A18C U92G | -2.86 |
| C8G C22G | -3.9 |
| A46C C56A G69U | -1.31 |
| C11G C13G A50C G110C | -5.28 |
| C11U G42A U96A | -3.35 |
| G39U C53G U116C | -2.62 |

| Variant | polymerase ribozyme fitness (log ratio) |
| --- | --- |
| A24U U116C G128U | -6.51 |
| G60U A90G C123A U125A G135A | 1.61 |
| C13U C20G G45A U96A | -4.96 |
| G39U C70A | -2.96 |
| A46C G47A A50G U129A | -3.12 |
| G45U G51U A118G G120U | -7.09 |
| C34G C80U C89G G120C U129C | -6.96 |
| U9A C70U | 0.25 |
| G42A C62G G69C C99A A111G C115U U129C | -6.83 |
| U9G C80A U87C C114U | -4.36 |
| C15U C28G G39U C124A U129G | -5.23 |
| G25A C124G | -5.14 |
| A27G G51A U78C | -3.93 |
| A16G G47C C56U A74U A121G G128C | -3.74 |
| A5U A6G G69U C86A C102A | -2.02 |
| G51A C56U G93U | -3.4 |
| U87G C94A G120U | -0.366 |
| A43C C62U U87G C88G A90C G127C U132C | -3.94 |
| C20A G120C | -1.75 |
| A37G G69U | -1.08 |
| A66G C79G G120A | -3.49 |
| C8G C11U C70A C94U | -1.28 |
| A43U C104U | -0.812 |
| U116A U125A | -3.4 |

| Variant | polymerase ribozyme fitness (log ratio) |
| --- | --- |
| A5U C70U C89U G110U | -2.97 |
| G10U G110A | -1.35 |
| G35U C123U | -2.85 |
| G36A G48U G63U C79G | -5.18 |
| A6U C8U G48U | -0.267 |
| G17U C97U | -3.45 |
| G39U C40A A43G C56G C104U U130C | -4.61 |
| G48A C56U C86A C94A A111C | -2.79 |
| A74U C80U C82G | -0.403 |
| C56U A84G A91U C98A C99A G120U | -7.08 |
| A24G G61U | -1.44 |
| C13G G60C | -1.52 |
| A27U G60U G63A U109A C124U | -6.47 |
| C4A A16G U54G C101A U112A A119G | -0.726 |
| G36C C56U | -0.42 |
| G51U C62A | -5.43 |
| G51U C88U G113C | -5.71 |
| C20U A43G U78G U87A C89G | -5.4 |
| C22U G120U | -3.75 |
| C22U G65U C72G C124U | -5.7 |
| U54A A119G | 0.648 |
| A18C G60A U78G G110C U131A | -7.27 |
| C28G G93A | -3.77 |
